Measured values reported in US20180200383A1.

Target: human folate receptor 1 (FOLR1) (human) (UniProt P15328)
Experiment: cell-based or functional assay

Sequence of human folate receptor 1 (FOLR1) (human) (P15328 25-234 limits assumed, form in doubt): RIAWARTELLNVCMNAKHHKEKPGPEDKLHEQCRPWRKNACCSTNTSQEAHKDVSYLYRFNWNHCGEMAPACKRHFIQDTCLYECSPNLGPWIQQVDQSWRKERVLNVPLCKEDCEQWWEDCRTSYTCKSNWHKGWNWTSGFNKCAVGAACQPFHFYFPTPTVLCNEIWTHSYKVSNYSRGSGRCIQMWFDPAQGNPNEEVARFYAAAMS

B1: IMGN853 (immunoconjugate of antibody huMov19, sulfo-SPDB and DM4) (antibody, from a related filing, V domains shown, part only)
VH: QVQLVQSGAEVVKPGASVKISCKASGYTFTGYFMNWVKQSPGQSLEWIGRIHPYDGDTFYNQKFQGKATLTVDKSSNTAHMELLSLTSEDFAVYYCTRYDGSRAMDYWGQGTTVTVSS
VL: DIVLTQSPLSLAVSLGQPAIISCKASQSVSFAGTSLMHWYHQKPGQQPRLLIYRASNLEAGVPDRFSGSGSKTDFTLTISPVEAEDAATYYCQQSREYPYTFGGGTKLEIKR
IC50 of cytotoxicity on Jeg-3 cells (5 days, WST-8): 1 nM
